Laboratory results: the supplement of paper PMC9112550, “Optimization of the antimicrobial peptide Bac7 by deep mutational scanning” (BMC Biology, 2022)

system: Escherichia coli TOP10; assay: shrunken log2 fold change of peptide-encoding DNA abundance (4.5 h post-induction vs induction); higher = less antimicrobial activity (less host growth inhibition); details: time post-induction: 4.5 h; library: site-saturation at positions 5, 18, 19, 20
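Further: peptides expressed intracellularly from a pBAD plasmid library in pooled LB shake-flask culture, induced with 0.3% L-arabinose, DNA abundance read by NGS, three biological replicates, DESeq2 with apeglm shrinkage.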

| Sequence | shrunken log2 fold change |
| --- | --- |
| RRIRHRPPRLPRPRPRPISKPRP | -0.929 |
| RRIRHRPPRLPRPRPRPIVAPRP | 0.0238 |
| RRIRHRPPRLPRPRPRPIVSPRP | -0.0219 |
| RRIRHRPPRLPRPRPRPIWSPRP | -0.085 |
| RRIRHRPPRLPRPRPRPIWYPRP | -0.75 |
| RRIRHRPPRLPRPRPRPIYDPRP | -0.436 |
| RRIRHRPPRLPRPRPRPIYSPRP | 0.0188 |
| RRIRHRPPRLPRPRPRPKARPRP | -0.00317 |
| RRIRHRPPRLPRPRPRPKCDPRP | -0.0608 |
| RRIRHRPPRLPRPRPRPKCNPRP | -0.00178 |
| RRIRHRPPRLPRPRPRPKCQPRP | -0.0621 |
| RRIRHRPPRLPRPRPRPKDRPRP | 0.00902 |
| RRIRHRPPRLPRPRPRPKEAPRP | 0.00884 |
| RRIRHRPPRLPRPRPRPKECPRP | -0.212 |
| RRIRHRPPRLPRPRPRPKFEPRP | -0.125 |
| RRIRHRPPRLPRPRPRPKGKPRP | -0.0894 |
| RRIRHRPPRLPRPRPRPKHPPRP | -0.0271 |
| RRIRHRPPRLPRPRPRPKLGPRP | -0.249 |
| RRIRHRPPRLPRPRPRPKLMPRP | 0.165 |
| RRIRHRPPRLPRPRPRPKLRPRP | -0.382 |
| RRIRHRPPRLPRPRPRPKNAPRP | -0.223 |
| RRIRHRPPRLPRPRPRPKNHPRP | -0.566 |
| RRIRHRPPRLPRPRPRPKPIPRP | -0.0951 |
| RRIRHRPPRLPRPRPRPKQVPRP | -0.482 |
| RRIRHRPPRLPRPRPRPKRLPRP | 0.0708 |

| Sequence | shrunken log2 fold change |
| --- | --- |
| RRIRHRPPRLPRPRPRPKRPPRP | 0.354 |
| RRIRHRPPRLPRPRPRPKTGPRP | -0.0854 |
| RRIRHRPPRLPRPRPRPKTTPRP | -0.052 |
| RRIRHRPPRLPRPRPRPKVDPRP | -0.0132 |
| RRIRHRPPRLPRPRPRPKWLPRP | 0.333 |
| RRIRHRPPRLPRPRPRPKYNPRP | -0.892 |
| RRIRHRPPRLPRPRPRPLASPRP | -0.0121 |
| RRIRHRPPRLPRPRPRPLCSPRP | -0.285 |
| RRIRHRPPRLPRPRPRPLDAPRP | -0.148 |
| RRIRHRPPRLPRPRPRPLDGPRP | -0.34 |
| RRIRHRPPRLPRPRPRPLDLPRP | 0.441 |
| RRIRHRPPRLPRPRPRPLFQPRP | -0.108 |
| RRIRHRPPRLPRPRPRPLGNPRP | 0.017 |
| RRIRHRPPRLPRPRPRPLHIPRP | -0.453 |
| RRIRHRPPRLPRPRPRPLIVPRP | -0.314 |
| RRIRHRPPRLPRPRPRPLNPPRP | -0.204 |
| RRIRHRPPRLPRPRPRPLNSPRP | -0.883 |
| RRIRHRPPRLPRPRPRPLQQPRP | 0.0446 |
| RRIRHRPPRLPRPRPRPLRIPRP | 0.156 |
| RRIRHRPPRLPRPRPRPLRVPRP | 0.298 |
| RRIRHRPPRLPRPRPRPLSSPRP | 0.0305 |
| RRIRHRPPRLPRPRPRPLTYPRP | -0.402 |
| RRIRHRPPRLPRPRPRPLVFPRP | -0.29 |
| RRIRHRPPRLPRPRPRPLWEPRP | 0.0119 |
| RRIRHRPPRLPRPRPRPMASPRP | -0.0864 |

| Sequence | shrunken log2 fold change |
| --- | --- |
| RRIRHRPPRLPRPRPRPMCIPRP | -0.162 |
| RRIRHRPPRLPRPRPRPMCLPRP | -0.0755 |
| RRIRHRPPRLPRPRPRPMDTPRP | 0.03 |
| RRIRHRPPRLPRPRPRPMEHPRP | -0.337 |
| RRIRHRPPRLPRPRPRPMFIPRP | -0.0886 |
| RRIRHRPPRLPRPRPRPMGAPRP | 0.0492 |
| RRIRHRPPRLPRPRPRPMHEPRP | 0.0983 |
| RRIRHRPPRLPRPRPRPMHTPRP | 0.0398 |
| RRIRHRPPRLPRPRPRPMKRPRP | 0.0794 |
| RRIRHRPPRLPRPRPRPMLVPRP | -0.155 |
| RRIRHRPPRLPRPRPRPMNTPRP | -0.616 |
| RRIRHRPPRLPRPRPRPMPLPRP | -0.0217 |
| RRIRHRPPRLPRPRPRPMRSPRP | -0.00134 |
| RRIRHRPPRLPRPRPRPMSRPRP | -0.0252 |
| RRIRHRPPRLPRPRPRPMWDPRP | -0.0134 |
| RRIRHRPPRLPRPRPRPNCDPRP | -0.264 |
| RRIRHRPPRLPRPRPRPNDGPRP | -0.134 |
| RRIRHRPPRLPRPRPRPNDWPRP | 0.339 |
| RRIRHRPPRLPRPRPRPNGWPRP | 0.42 |
| RRIRHRPPRLPRPRPRPNHIPRP | -0.844 |
| RRIRHRPPRLPRPRPRPNHRPRP | -0.0366 |
| RRIRHRPPRLPRPRPRPNIDPRP | -0.153 |
| RRIRHRPPRLPRPRPRPNILPRP | -0.448 |
| RRIRHRPPRLPRPRPRPNKGPRP | -0.174 |
| RRIRHRPPRLPRPRPRPNLDPRP | -1.17 |
